# Laboratory results reported in patent US6656735, “Method for identification of target genes of transcription factors” (GSF Forschungszentrum Fuer Umwelt Und Gesundheit GmbH).
# T1: EnHD (Engrailed 2 homeodomain, 60 aa) (Gallus gallus, UniProt Q05917 Q05917:200-259)
# T1 sequence: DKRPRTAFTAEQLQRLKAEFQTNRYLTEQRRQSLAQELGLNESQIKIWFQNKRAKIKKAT
# T2: Engrailed 2 full length (En2, ChEn2) (Gallus gallus, UniProt Q05917 Q05917:1-289)
# T2 sequence: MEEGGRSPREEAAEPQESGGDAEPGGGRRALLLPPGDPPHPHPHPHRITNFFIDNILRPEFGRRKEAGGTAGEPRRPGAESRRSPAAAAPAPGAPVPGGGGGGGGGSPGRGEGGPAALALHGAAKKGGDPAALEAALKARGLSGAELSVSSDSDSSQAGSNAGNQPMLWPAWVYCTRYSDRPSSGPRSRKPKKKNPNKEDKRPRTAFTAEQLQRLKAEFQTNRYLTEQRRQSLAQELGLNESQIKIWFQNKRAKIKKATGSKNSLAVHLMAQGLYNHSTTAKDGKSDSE
# B1: NP6 site, six copies (dsDNA)
# DNA 1: TCAATTAAAT
# DNA 2: ATTTAATTGA
# B2: BPAG1e promoter oligonucleotide -2225 to -2180 (dsDNA)
# DNA 1: CTCAAATAATTAGTCATTAAAAAAAATAAAGGCATATGAGCCAGCCT
# DNA 2: AGGCTGGCTCATATGCCTTTATTTTTTTTAATGACTAATTATTTGAG
# B3: BPAG1e promoter oligonucleotide -694 to -665 (dsDNA)
# DNA 1: CGCAGAATATTGGCTCAGTAACTAAGTGTG
# DNA 2: CACACTTAGTTACTGAGCCAATATTCTGCG
# Key:
# [1] = molecular target: T1, EnHD (Engrailed 2 homeodomain, 60 aa); experiment: EMSA; four complexes with 10 to 100 ng EnHD; fragment with six NP6 copies; details: tags: E. coli pET-3a, heparin-sepharose purified, no tag stated; label: 32P
# Protocol: FIGS. 2A, 2B and 2C: Bacterially produced EnHD binds DNA and is efficiently internalized into cells in culture. (A) Polyacrylamide gel electrophoresis is of EnHD purified from *E. coli* extracts (Coomassie staining). (B) Band shift assay, performed by incubating 0.5 ng ^32P-ATP-labeled NP6 oligonucleotides with increasing amounts (0, 10, 20, 50 and 100 ng) of purified EnHD. (C) ES cells (upper Pannels) or GMA24FIA (lower Pannels) were incubated for 2 hrs. with FITC-EnHD (300 ng/ml) (left) or FITC alone (right).
# The protocol described in FIG. 1 requires the EnHD added to the culture medium to be internalized by a large number of ES cells. EnHD was produced in E. coli and purified on heparin sepharose. […] To test the binding properties of EnHD, gel shift experiments were performed using a DNA fragment containing six copies of the NP6 site (TCAATTAAAT) (SEQ ID NO:3) known to bind Drosophila Engrailed.
# [2] = molecular target: T2, Engrailed 2 full length (En2, ChEn2); experiment: EMSA; two shifted complexes; 20 mM Tris-HCl pH 7.9, 35 mM KCl, 2.5 mM MgCl2, poly-dIdC, on ice; details: label: 32P
# [3] = molecular target: T2, Engrailed 2 full length (En2, ChEn2); experiment: EMSA; two shifted complexes; no ATTA core; 20 mM Tris-HCl pH 7.9, 35 mM KCl, 2.5 mM MgCl2, poly-dIdC, on ice; details: label: 32P
binder,measurement,setting,value
B1,binding result,[1],binds
B2,binding result,[2],binds
B3,binding result,[3],binds
